Residue numbers refer to the chain shown, from its start.
B1: KB_A02 Fab (Fab, V domains shown)
VH: EVQLVESGGGLVRPGGSLRLSCAASGFTFSSYAMSWVRQAPGKGLEWVSAISGSGGSTYYADSVKGRFTISRDNTKNSLYLQMTSLRADDTAFYYCVKDFGPGYGTGWFDYWGPGTLVTVSS
VL: AVNWYQQLPGKAPKLLIYAAAKCPRILMRCKQDSDCLAGCVCGPNGFCGGASGVSDRFSGSIDSSSNSASLTISGLKPEDEGDYYCQSYDSSNRWVFGGGTKVTVLG
B2: KB_A09 Fab (Fab, V domains shown)
VH: B1 VH
VL: AVNWYQQLPGKAPKLLIYAAERCPRILMRCKQDSDCLAGCVCGPNGFCGTPSGVPDRFSGSIDTFSNSASLTISGLKTEDEADYYCQSYDSSHHWVFGGGTKLTVLG
B3: KB_A06 Fab (Fab, V domains shown)
VH: B1 VH
VL: AVNWYQQLPGKAPKLLIYAAVRCPRILMRCKQDSDCLAGCVCGPNGFCGTPSGIPERFSGSIDRSTNSASLTISGLKTEDEADYYCQSYDSSNLNWVFGGGTKLTVLG
B4: KB_A07 Fab (Fab, V domains shown)
VH: B1 VH
VL: YLNWYQQKPGKAPKLLIYAAGVCPRILMRCKQDSDCLAGCVCGPNGFCGSRSGVPSRFSGSGSGTDFTLTISSLQPEDFATYYCQQGASPPYTFGQGTKVEIKR
B5: KB_A01 Fab (Fab, V domains shown)
VH: B1 VH
VL: YLNWYQQKPGKAPKLLIYAAEVCPRILMRCKQDSDCLAGCVCGPNGFCGGTSGVPSRFSGSRSGTEFTLTISSLQPEDFATYYCQKVDDYPLTFGGGTKVEIKR
B6: KB_A10 Fab (Fab, V domains shown)
VH: B1 VH
VL: AVNWYQQLPGKAPKLLIYAAGGCPRILMRCKQDSDCLAGCVCGPNGFCGSNSGVPDRFSGSKSGNTASLTISGLQSEDEADYYCAAWDDSLSGVVFGGGTQLTVLG
B7: KB_A05 Fab (Fab, V domains shown)
VH: EVQLVESGGGLVRPGGSLRLSCAASGFTFSSYAMSWVRQAPGKGLEWVSAISGSGGSTYYADSVKGRFTISRDNTKNSLYLQMTSLRADDTAFYYCVDFGPGYGTGWFDYWGPGTLVTVSS
VL: AVNWYQQLPGKAPKLLIYAADKCPRILMRCKQDSDCLAGCVCGPNGFCGGGSGIPERFSGSKSGTSASLAISGLRSEDEADYYCATWDDNLNGVVFGGGTKLTVLG
B8: KB_C08 (scFv on phage) (scFv, V domains shown)
VH: B1 VH
VL: B7 VL with D21A, K22V, G50T, G51R, S68F, T86A, N90S, N92S
B9: KB_C07 (scFv on phage) (scFv, V domains shown)
VH: B1 VH
VL: AVNWYQQLPGKAPKLLIYAAVGCPRILMRCKQDSDCLAGCVCGPNGFCGSASGVSDRFSGSKSGTSASLAISGLRSEDEADYYCASWDDSLRGYVFGTGTKVTVLG
B10: KB_B01 (scFv on phage) (scFv, V domains shown)
VH: B1 VH
VL: B9 VL with V21A, S50T, A51R, S86A, G93A, V102L
B11: KB_A09 (scFv on phage) (scFv, V domains shown)
VH: B1 VH
VL: B2 VL
B12: KB_A11 (scFv on phage) (scFv, V domains shown)
VH: B1 VH
VL: YLNWYQQKPGKAPKLLIYAAEICPRILMRCKQDSDCLAGCVCGPNGFCGPSSGIPARFSGSGYGTDFTLTINNIESEDAAYYFCLQHDNFPYTFGQGTKVEIKR
B13: KB_A02 (scFv on phage) (scFv, V domains shown)
VH: B1 VH
VL: B1 VL
B14: KB_B10 (scFv on phage) (scFv, V domains shown)
VH: B1 VH
VL: QSVLTQLPSVSEAPRQRVTITCGRAMCPRILMRCKQDSDCLAGCVCGPNGFCGTGNWYQQHPGKAPKLIIFDVSKRPSGVPDRFSASKSGNTASLTISGLQAEDEADYYCNSYTSSNTWVFGGGTQLTVLG
B15: KB_C09 (scFv on phage) (scFv, V domains shown)
VH: B1 VH
VL: B2 VL with E21G, T50G, P51G, T64S, F65S, K77R, T78A, H93N
B16: KB_A01 (scFv on phage) (scFv, V domains shown)
VH: B1 VH
VL: B5 VL
B17: KB_C10 (scFv on phage) (scFv, V domains shown)
VH: B1 VH
VL: AVNWYQQLPGKAPKLLIYAAGPCPRILMRCKQDSDCLAGCVCGPNGFCGADSGVSDRFSGSKSGTSASLAITGLQAEDEGDYYCAAWDDSLNGLVFGGGTKVTVLG
B18: KB_B11 (scFv on phage) (scFv, V domains shown)
VH: B1 VH
VL: TQPPSVSEAPRQRVTITCGSRPCPRILMRCKQDSDCLAGCVCGPNGFCGSHNWYQQLPGSSPTTVIYEDNQRPSGVPDRFSGSIDRSSNSASLTISGLKTEDEADYYCQSYDSSNHRVVFGGGTKLTVLG
B19: KB_A06 (scFv on phage) (scFv, V domains shown)
VH: B1 VH
VL: B3 VL
B20: KB_B12 (scFv on phage) (scFv, V domains shown)
VH: B1 VH
VL: TQPPSVSEAPRQRVTITCGERPCPRILMRCKQDSDCLAGCVCGPNGFCGANNWYQQLPGSSPTTVIYEDNQRPSGVPDRFSGSIDSSSNSASLTISGLKTEDEADYYCQSYDSSNQVFGGGTKVTVLG
B21: KB_A10 (scFv on phage) (scFv, V domains shown)
VH: B1 VH
VL: B6 VL
B22: KB_A03 (scFv on phage) (scFv, V domains shown)
VH: B1 VH
VL: AVNWYQQLPGKAPKLLINAADRCPRILMRCKQDSDCLAGCVCGPNGFCGTNSGVPDRFSGSSSGNTASLTITGAQAEDEADYYCNSRDSSGNNWVFGGGTKVTVLG
B23: KB_A05 (scFv on phage) (scFv, V domains shown)
VH: B1 VH
VL: B7 VL
B24: KB_B02 (scFv on phage) (scFv, V domains shown)
VH: B1 VH
VL: B6 VL with G21V, S50T, N51G, V54I, D56E, S76A, A80G, V94P, Q101K
B25: KB_A07_ShK (antibody, V domains shown)
VH: B1 VH
VL: NWYQQKPGKAPKLLIYAAGVRSCIDTIPKSRCTAFQCKHSMKYRLSFCRKTCGTCSRSGVPSRFSGSGSGTDFTLTISSLQPEDFATYYCQQGASPPYTFGQGTKVEIKR
B26: KB_A07_KTX (antibody, V domains shown)
VH: B1 VH
VL: DIQMTQSPSSLSASVGDRVTITCRASQSISSYLNWYQQKPGKAPKLLIYAAGVGVEINVKCSGSPQCLKPCKDAGMRFGKCMNRKCHCTPKSRSGVPSRFSGSGSGTDFTLTISSLQPEDFATYYCQQGASPPYTFGQGTKVEIKR
B27: KB_A07_MoKa-1 (antibody, V domains shown)
VH: B1 VH
VL: DIQMTQSPSSLSASVGDRVTITCRASQSISSYLNWYQQKPGKAPKLLIYAAGVINVKCSLPQQCIKPCKDAGMRFGKCMNKKCRCYSSRSGVPSRFSGSGSGTDFTLTISSLQPEDFATYYCQQGASPPYTFGQGTKVEIKRT

These binders were tested against trypsin (assay: TRF, 2.4 ug/mL Fab on trypsin).

| Binder | TRF signal |
| --- | --- |
| B1 | 221000 |
| B2 | 84100 |
| B3 | 212000 |
| B4 | 201000 |
| B5 | 16600 |
| B6 | 71900 |
| B7 | 65400 |

The binders below were run against trypsin (assay: phage TRF on trypsin).

| Binder | Tryspin binding signal (FU) |
| --- | --- |
| B8 | 76800 FU |
| B9 | 43300 FU |
| B10 | 57700 FU |
| B11 | 57700 FU |
| B12 | 16400 FU |
| B13 | 183000 FU |
| B14 | 9270 FU |
| B15 | 89400 FU |
| B16 | 20200 FU |
| B17 | 119000 FU |
| B18 | 10300 FU |
| B19 | 24400 FU |
| B20 | 17400 FU |
| B21 | 38800 FU |
| B22 | 28700 FU |
| B23 | 121000 FU |
| B24 | 116000 FU |

These binders were tested against trypsin (assay: TRF, 10 ug/mL Fab on trypsin).

| Binder | TRF signal |
| --- | --- |
| B1 | 255000 |
| B2 | 161000 |
| B3 | 242000 |
| B4 | 226000 |
| B5 | 55600 |
| B6 | 68700 |
| B7 | 218000 |

Each binder was assayed against trypsin (assay: TRF, 0.6 ug/mL Fab on trypsin).

| Binder | TRF signal |
| --- | --- |
| B1 | 93800 |
| B2 | 21000 |
| B3 | 108000 |
| B4 | 108000 |
| B5 | 2390 |
| B6 | 14600 |
| B7 | 46700 |

The binders below were run against human Kv1.3 (human) (UniProt P22001) (assay: cell-based or functional assay).
Sequence of human Kv1.3 (human) (P22001 whole entry): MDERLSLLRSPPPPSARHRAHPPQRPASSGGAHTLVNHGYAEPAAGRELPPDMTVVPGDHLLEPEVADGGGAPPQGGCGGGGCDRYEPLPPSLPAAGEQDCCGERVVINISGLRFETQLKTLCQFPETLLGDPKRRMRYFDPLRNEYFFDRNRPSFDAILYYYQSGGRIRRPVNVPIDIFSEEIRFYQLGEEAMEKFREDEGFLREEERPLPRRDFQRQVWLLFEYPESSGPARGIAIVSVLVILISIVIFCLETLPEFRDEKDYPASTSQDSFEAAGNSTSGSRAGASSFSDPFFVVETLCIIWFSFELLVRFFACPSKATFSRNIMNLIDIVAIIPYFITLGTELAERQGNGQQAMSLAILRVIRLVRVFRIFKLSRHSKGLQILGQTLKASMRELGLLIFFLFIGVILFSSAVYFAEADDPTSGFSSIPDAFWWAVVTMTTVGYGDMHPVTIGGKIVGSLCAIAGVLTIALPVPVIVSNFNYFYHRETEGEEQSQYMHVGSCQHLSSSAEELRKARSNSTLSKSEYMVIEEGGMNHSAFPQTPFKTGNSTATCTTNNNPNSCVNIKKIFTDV

| Binder | IC50, huKv1.3 current, QPatch patch clamp |
| --- | --- |
| B25 | 40 nM |
| B26 | 900 nM |
| B27 | > 10000 nM |

Reference: US20230331827A1, “POTASSIUM CHANNEL INHIBITORS” (priority 2017, published 2023)
